Sequences and labels used below:
B1: Mediator of RNA polymerase II transcription subunit 15 (Saccharomyces cerevisiae), P19659 (parent)
chain: MSAAPVQDKDTLSNAERAKNVNGLLQVLMDINTLNGGSSDTADKIRIHAKNFEAALFAKSSSKKEYMDSMNEKVAVMRNTYNTRKNAVTAAAANNNIKPVEQHHINNLKNSGNSANNMNVNMNLNPQMFLNQQAQARQQVAQQLRNQQQQQQQQQQQQRRQLTPQQQQLVNQMKVAPIPKQLLQRIPNIPPNINTWQQVTALAQQKLLTPQDMEAAKEVYKIHQQLLFKARLQQQQAQAQAQANNNNNGLPQNGNINNNINIPQQQQMQPPNSSANNNPLQQQSSQNTVPNVLNQINQIFSPEEQRSLLQEAIETCKNFEKTQLGSTMTEPVKQSFIRKYINQKALRKIQALRDVKNNNNANNNGSNLQRAQNVPMNIIQQQQQQNTNNNDTIATSATPNAAAFSQQQNASSKLYQMQQQQQAQAQAQAQAQAQAQAQAQAQAAQAAQAQAQAQAQAQAQAQAQAQAQAQAQAQAQAQAQAHAQHQPSQQPQQAQQQPNPLHGLTPTAKDVEVIKQLSLDASKTNLRLTDVTNSLSNEEKEKIKMKLKQGQKLFVQVSNFAPQVYIITKNENFLKEVFQLRIFVKEILEKCAEGIFVVKLDTVDRLIIKYQKYWESMRIQILRRQAILRQQQQMANNNGNPGTTSTGNNNNIATQQNMQQSLQQMQHLQQLKMQQQQQQQQQQQQQQQQQQQQQQQHIYPSSTPGVANYSAMANAPGNNIPYMNHKNTSSMDFLNSMENTPKVPVSAAATPSLNKTINGKVNGRTKSNTIPVTSIPSTNKKLSISNAASQQPTPRSASNTAKSTPNTNPSPLKTQTKNGTPNPNNMKTVQSPMGAQPSYNSAIIENAFRKEELLLKDLEIRKLEISSRFKHRQEIFKDSPMDLFMSTLGDCLGIKDEEMLTSCTIPKAVVDHINGSGKRKPTKAAQRARDQDSIDISIKDNKLVMKSKFNKSNRSYSIALSNVAAIFKGIGGNFKDLSTLVHSSSPSTSSNMDVGNPRKRKASVLEISPQDSIASVLSPDSNIMSDSKKIKVDSPDDPFMTKSGATTSEKQEVTNEAPFLTSGTSSEQFNVWDWNNWTSAT
partner: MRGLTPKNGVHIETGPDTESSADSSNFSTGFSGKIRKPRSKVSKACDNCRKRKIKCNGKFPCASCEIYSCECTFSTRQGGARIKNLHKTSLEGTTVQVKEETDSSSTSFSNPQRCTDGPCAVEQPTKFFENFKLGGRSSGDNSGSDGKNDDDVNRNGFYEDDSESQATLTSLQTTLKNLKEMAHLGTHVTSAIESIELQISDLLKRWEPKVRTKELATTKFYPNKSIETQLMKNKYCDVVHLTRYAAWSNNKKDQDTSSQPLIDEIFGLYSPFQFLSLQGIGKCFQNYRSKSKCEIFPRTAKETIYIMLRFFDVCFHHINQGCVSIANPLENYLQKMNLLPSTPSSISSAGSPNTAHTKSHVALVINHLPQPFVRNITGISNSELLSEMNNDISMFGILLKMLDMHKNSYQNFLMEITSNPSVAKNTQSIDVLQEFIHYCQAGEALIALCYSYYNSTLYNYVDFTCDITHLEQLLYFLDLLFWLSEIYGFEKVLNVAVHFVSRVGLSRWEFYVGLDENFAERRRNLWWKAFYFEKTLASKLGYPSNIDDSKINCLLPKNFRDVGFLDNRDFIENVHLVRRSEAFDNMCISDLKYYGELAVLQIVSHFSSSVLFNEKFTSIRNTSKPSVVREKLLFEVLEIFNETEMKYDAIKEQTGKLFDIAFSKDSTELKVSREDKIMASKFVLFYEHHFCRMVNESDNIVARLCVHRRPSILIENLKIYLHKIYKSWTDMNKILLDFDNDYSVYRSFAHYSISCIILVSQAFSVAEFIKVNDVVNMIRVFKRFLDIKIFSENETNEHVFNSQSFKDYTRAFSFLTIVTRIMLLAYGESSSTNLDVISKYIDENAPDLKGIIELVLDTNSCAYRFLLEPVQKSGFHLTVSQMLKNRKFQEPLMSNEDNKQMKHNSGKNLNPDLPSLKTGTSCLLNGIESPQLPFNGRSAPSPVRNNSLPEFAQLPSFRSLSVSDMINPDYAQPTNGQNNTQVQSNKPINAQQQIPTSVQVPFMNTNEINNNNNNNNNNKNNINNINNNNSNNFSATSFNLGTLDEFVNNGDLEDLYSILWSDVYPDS

Results on 6 variants are retold here after IntAct's records for PubMed 18385733.

The variants in this experiment derive from B1. Particulars: with pdr1_yeast PDR1, P12383.
K63Q: the “effect of a mutation on the interaction” value is listed as “disrupting interaction”.

In the case of V76D, the “effect of a mutation on the interaction” value was “disrupting interaction”.

Take S69D: the “effect of a mutation on the interaction” value was “disrupting interaction”.

In the case of M77E, the “effect of a mutation on the interaction” value is “disrupting interaction”.

V27D: the “effect of a mutation on the interaction” value is recorded as “disrupting interaction”.

On to R78L, for which the “effect of a mutation on the interaction” value was “disrupting interaction”.
